In the supplement of paper PMC6755084:

B1: F1*; the commonest letter at each place (parent)
chain: GAGACCGCAACTGAAAAGTTGTTATCACTTGTCGTAAGACACTTTGGATGGGTTGAAGTTCTGCACGTAGAAGCAAAAGGC

Variants of: B1
Assay: fraction ligated after 30 min (ligated reads / total reads); higher = more ligase activity
Conditions: with F1*sub RNA substrate (template-directed ligation), 42 °C
In short: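 Oligo-pool templates underwent PCR amplification, T7 transcription and gel purification to yield ribozyme variants. Gel-separated ligated and unligated bands were converted to complementary DNA with barcoded primers and sequenced on a MiSeq, keeping core bases of quality ≥20. The ratio of ligated reads to total reads gave the fraction ligated for every variant.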

Variant	fraction ligated
GAGACCGCAACTGAAAAGTTGTTATCACTTGTCGTTATACACTTTGGATGGGTTGAAGTTCTGCACGTAGAAGCAAAAGGC [A36T G38T]	0.834
GAGACCGCAACTGAAAAGTTGTTATCACTTGTCGTTACACACTTTGGATGGGTTGAAGTTCTGCACGTAGAAGCAAAAGGC [A36T G38C]	0.833
GAGACCGCAACTGAAAAGTTGTTATCACTTGTCGTTAAACACTTTGGATGGGTTGAAGTTCTGCACGTAGAAGCAAAAGGC [A36T G38A]	0.849
GAGACCGCAACTGAAAAGTTGTTATCACTTGTCGTTAGAGACTTTGGATGGGTTGAAGTTCTGCACGTAGAAGCAAAAGGC [A36T C40G]	0.824
GAGACCGCAACTGAAAAGTTGTTATCACTTGTCGTTAGATACTTTGGATGGGTTGAAGTTCTGCACGTAGAAGCAAAAGGC [A36T C40T]	0.83
GAGACCGCAACTGAAAAGTTGTTATCACTTGTCGTTAGAAACTTTGGATGGGTTGAAGTTCTGCACGTAGAAGCAAAAGGC [A36T C40A]	0.823
GAGACCGCAACTGAAAAGTTGTTATCACTTGTCGTTAGACACTTTGTATGGGTTGAAGTTCTGCACGTAGAAGCAAAAGGC [A36T G47T]	0.383
GAGACCGCAACTGAAAAGTTGTTATCACTTGTCGTTAGACACTTTGAATGGGTTGAAGTTCTGCACGTAGAAGCAAAAGGC [A36T G47A]	0.8
GAGACCGCAACTGAAAAGTTGTTATCACTTGTCGTTAGACACTTTGCATGGGTTGAAGTTCTGCACGTAGAAGCAAAAGGC [A36T G47C]	0.233
GAGACCGCAACTGAAAAGTTGTTATCACTTGTCGTTAGACACTATGGATGGGTTGAAGTTCTGCACGTAGAAGCAAAAGGC [A36T T44A]	0.844
GAGACCGCAACTGAAAAGTTGTTATCACTTGTCGTTAGACACTCTGGATGGGTTGAAGTTCTGCACGTAGAAGCAAAAGGC [A36T T44C]	0.82
GAGACCGCAACTGAAAAGTTGTTATCACTTGTCGTTAGACACTGTGGATGGGTTGAAGTTCTGCACGTAGAAGCAAAAGGC [A36T T44G]	0.847
GAGACCGCAACTGAAAAGTTGTTATCACTTGTCGTTAGACACTTTCGATGGGTTGAAGTTCTGCACGTAGAAGCAAAAGGC [A36T G46C]	0.787
GAGACCGCAACTGAAAAGTTGTTATCACTTGTCGTTAGACACTTTAGATGGGTTGAAGTTCTGCACGTAGAAGCAAAAGGC [A36T G46A]	0.818
GAGACCGCAACTGAAAAGTTGTTATCACTTGTCGTTAGACACTTTTGATGGGTTGAAGTTCTGCACGTAGAAGCAAAAGGC [A36T G46T]	0.791
GAGACCGCAACTGAAAAGTTGTTATCACTTGTCGTTAGACAATTTGGATGGGTTGAAGTTCTGCACGTAGAAGCAAAAGGC [A36T C42A]	0.834
GAGACCGCAACTGAAAAGTTGTTATCACTTGTCGTTAGACAGTTTGGATGGGTTGAAGTTCTGCACGTAGAAGCAAAAGGC [A36T C42G]	0.835

Variant	fraction ligated
GAGACCGCAACTGAAAAGTTGTTATCACTTGTCGTTAGACATTTTGGATGGGTTGAAGTTCTGCACGTAGAAGCAAAAGGC [A36T C42T]	0.856
GAGACCGCAACTGAAAAGTTGTTATCACTTGTCGTTAGACACTTTGGATGGGTTCAAGTTCTGCACGTAGAAGCAAAAGGC [A36T G55C]	0.817
GAGACCGCAACTGAAAAGTTGTTATCACTTGTCGTTAGACACTTTGGATGGGTTAAAGTTCTGCACGTAGAAGCAAAAGGC [A36T G55A]	0.842
GAGACCGCAACTGAAAAGTTGTTATCACTTGTCGTTAGACACTTTGGATGGGTTTAAGTTCTGCACGTAGAAGCAAAAGGC [A36T G55T]	0.836
GAGACCGCAACTGAAAAGTTGTTATCACTTGTCGTTAGACACGTTGGATGGGTTGAAGTTCTGCACGTAGAAGCAAAAGGC [A36T T43G]	0.812
GAGACCGCAACTGAAAAGTTGTTATCACTTGTCGTTAGACACATTGGATGGGTTGAAGTTCTGCACGTAGAAGCAAAAGGC [A36T T43A]	0.841
GAGACCGCAACTGAAAAGTTGTTATCACTTGTCGTTAGACACCTTGGATGGGTTGAAGTTCTGCACGTAGAAGCAAAAGGC [A36T T43C]	0.814
GAGACCGCAACTGAAAAGTTGTTATCACTTGTCGTTAGACACTTTGGATGGGTTGATGTTCTGCACGTAGAAGCAAAAGGC [A36T A57T]	0.824
GAGACCGCAACTGAAAAGTTGTTATCACTTGTCGTTAGACACTTTGGATGGGTTGAGGTTCTGCACGTAGAAGCAAAAGGC [A36T A57G]	0.841
GAGACCGCAACTGAAAAGTTGTTATCACTTGTCGTTAGACACTTTGGATGGGTTGACGTTCTGCACGTAGAAGCAAAAGGC [A36T A57C]	0.823
GAGACCGCAACTGAAAAGTTGTTATCACTTGTCGTTAGACACTTTGGATTGGTTGAAGTTCTGCACGTAGAAGCAAAAGGC [A36T G50T]	0.775
GAGACCGCAACTGAAAAGTTGTTATCACTTGTCGTTAGACACTTTGGATCGGTTGAAGTTCTGCACGTAGAAGCAAAAGGC [A36T G50C]	0.467
GAGACCGCAACTGAAAAGTTGTTATCACTTGTCGTTAGACACTTTGGATAGGTTGAAGTTCTGCACGTAGAAGCAAAAGGC [A36T G50A]	0.642
GAGACCGCAACTGAAAAGTTGTTATCACTTGTCGTTAGACACTTTGGATGGGTTGGAGTTCTGCACGTAGAAGCAAAAGGC [A36T A56G]	0.795
GAGACCGCAACTGAAAAGTTGTTATCACTTGTCGTTAGACACTTTGGATGGGTTGCAGTTCTGCACGTAGAAGCAAAAGGC [A36T A56C]	0.797
GAGACCGCAACTGAAAAGTTGTTATCACTTGTCGTTAGACACTTTGGATGGGTTGTAGTTCTGCACGTAGAAGCAAAAGGC [A36T A56T]	0.823
GAGACCGCAACTGAAAAGTTGTTATCACTTGTCGTTAGACACTTTGGTTGGGTTGAAGTTCTGCACGTAGAAGCAAAAGGC [A36T A48T]	0.792
